The text below walks through data of a protein production outcome set (Wang et al. 2014).

The nature of the data set: label from the status in PepcDB records.
As to “MLAMKLGIVGLGGWVTGAHIPALTDLGIKVDYCADIDEKRVKDLSQKTGCKGYLDYKEMLRNENPDLVLVAVPHSLHAIIALDAINNDANVYVEKPMATSFQEALTLVEASRKRNKILVVGHENRFNPAMLIAKKLIRGGEVGKIYHMRGFYIRQRGIPTSPTFIKKDLAKGGAVFDIGTHIIDLLLFLSDFPTPKSVTGKTYNAFSEDKTKFSAYPSPNLPNFKVEVEDFGSAFLKLGDEISAYVEVSWASYIKENKMEVVILGDNGGIHIDNGVLNFMRNIEDELFISSPLTQQKGSVYREVWRTVMESISKGFPEYPLCSAEQGAIGVAILESIYKSALEGREVKIDIPQWFLKQFQPRALEHHHHHH”, the protein production entry is given as “failed”.
Next, “MLCIPATRDQTVSSHPAGTRQKKLFSQNDYLAPLPLPTGQQPVDSLNIIWRKNEVYIDIGCYSVGSAVMVIWPMMIMFISLAYGLNDIDLLWLGVIITGIPTLMLIHGLLRPTPPPVRFNRQRREVCVPRDNGEYWIVPWESVTAASTQCSSIGQAGRVTMGLLFIGFENPDAEASEDNKHFSMGFNCGGGETAMALWECMRSYMEIGPEVVPESRVGAMPYEKTQIGSIVTSLRKGDVFDVLHGLFFITILGTYLAEKLQNLKLSPPPDLEYPDIIEWSKSLPPEQWATPSPELLAALARQAATS”: “failed”; “MLCLTKKRHGLRIEIPPMPILPARPLKYLLASIIALTAGGPDIAVAQAPDSVISQPGTAPASSFRTDRLPGGDVKPSDGVGVFDRMGAKLPDLPPEKDYKGPIDEAYGAYQRGYYLTAMDKALPRAQLGDPAAQTLIGEILSQGLGVKKDVKGAAFWYGKAAEGGDPAAMFKYALMLMEGQGVPRDKVKADDYMRKAAEAGNPSAEFNWAQIVVADNPGEKGLKLALPFYEKSAEQGIADSQYAVAQIYATLKDLPEEKKRLAREWMARAARAGFDTAELDLGIWLVNGVGGPKDYVKGFEWLKLAANGGNVVAQNKLAHLYINAIGTPPNPVEAAKWYVLSRRAGLADPSLEDFYLGIEDDQQKAAIDAANKFRRR”: “failed”; “MLCTYHAGQWFNNLLNFIDFIRLQFGKTANVLNLNDCLHIWLFSLEVRSLRDVVKMKLILSIMILSGCLLFILAGCARKNDYMPPAGATGEKIFKGACVQCHTPVNGKVMILRSEMANKEAIIERVTNGKGFGMPAFPNLTGDSVQNLAEYVLENSVTR”: “failed”.
Next, “MLDAILSNYLYYPSILAFLFGVLMGAKYRHKIGNIFGYLILTVVIAYFLKAFPYYDLLPLSCSYLSAVIGIIIGNRLFGGKMI”: “failed”; “MLDCIVVGAGPAGGSAAYHLARRDRQVLLLEQAQLPRQKACAGGVSPQVARWFDCDLRSVVDHGVDRLRFTWKLGDPVEAELPSEEPFWMVRRDRFDHFLVEQAANLGARIEDGAAVTAVSAEGDGWLVTVGDRAYRSRTLIAADGARGPLAQWLGFPSQKRRYAQACELDVPLPARPDSTAHFEFGLVRNGYIWVFPKSDGYSIGIGTFRGNDATDFRGLLETYLAGFGVSADLDRIVPHPLCVWDGSQPLHRGSALLVGEAASLTDPFTAEGIRPALLSGMRAAEAIDRAIAGDRNALAGYSRTIQQEWGDSMAWAKRISSVFYRVPNLGYQIGIKRPTAPQRMAQILVGELDYSDIATRVIRRLTTGFLPGMR”: “failed”.
Then “MLDHFGSDPVFSPEQVLENRGRVAIFIDGSNLFYAALQLGIEIDYSKLLYRLTGGSRLLRSFFYTGVDRANEKQQGFLLWMRRNGYRVIAKDLVQLPDGSKKANLDVEIAVDMMALVGSYDTAVLVSGDGDLAYAVDAVSYRGARVEVVSLRSMTSDSLINVADRYIDLEQIQTDIQKLHRGQFSEPRLMEDRGGGTIELPSHE”, with “failed”.
In the case of “MLDLFGYKRRKTSVAQIGDTPLGGDFPIRIQSMANVSTMDTQASVDQAARIIDAGADYVRFTAQGVREAVNLQHIHAGLCRLGYHIPLVADIHFSPKAAEEALLHVEKVRINPGNFVEMKSGGNLTEEEAFDLGHKAVRERFGSFVEDAKRLGRAIRIGVNHGSLSERMLTRYGDTAEGMVQSCMEYLDVCHEHEFDDVVISMKASNTLVMTAAVRLLVERMDAADMHYPLHIGVTEAGDGEDGRIKSAVGIGSLLADGIGDTIRVSLSEDPEHEIPVARKLLAYIEKRNGHPSVAVPQPDRYDRDKLRRQETYAVGDFIGSKHIPIVISDRRQGDDHFDTELLPDIVLGADGRYYREDMLLENIVFRSIRQDDLTDDCLQTIEAISDTVIILESVGINPVAEWRAMLHRLELAGCRCPVILHRRYDCTDLEDLQLQASADMGAILLEGRGNGLMITADKLPSVAVNHLAFGILQATR”, the protein production result is “failed”.
